# Test results published in patent US20220010021A1 (Sanofi, published 2022).
# Numbering of substitutions follows the chain as printed.
# T1: human beta-Klotho (KLB) (human, UniProt Q86Z14 53-997)
# T1 construct: bought protein; also called human KLB
# T1 sequence (looked up): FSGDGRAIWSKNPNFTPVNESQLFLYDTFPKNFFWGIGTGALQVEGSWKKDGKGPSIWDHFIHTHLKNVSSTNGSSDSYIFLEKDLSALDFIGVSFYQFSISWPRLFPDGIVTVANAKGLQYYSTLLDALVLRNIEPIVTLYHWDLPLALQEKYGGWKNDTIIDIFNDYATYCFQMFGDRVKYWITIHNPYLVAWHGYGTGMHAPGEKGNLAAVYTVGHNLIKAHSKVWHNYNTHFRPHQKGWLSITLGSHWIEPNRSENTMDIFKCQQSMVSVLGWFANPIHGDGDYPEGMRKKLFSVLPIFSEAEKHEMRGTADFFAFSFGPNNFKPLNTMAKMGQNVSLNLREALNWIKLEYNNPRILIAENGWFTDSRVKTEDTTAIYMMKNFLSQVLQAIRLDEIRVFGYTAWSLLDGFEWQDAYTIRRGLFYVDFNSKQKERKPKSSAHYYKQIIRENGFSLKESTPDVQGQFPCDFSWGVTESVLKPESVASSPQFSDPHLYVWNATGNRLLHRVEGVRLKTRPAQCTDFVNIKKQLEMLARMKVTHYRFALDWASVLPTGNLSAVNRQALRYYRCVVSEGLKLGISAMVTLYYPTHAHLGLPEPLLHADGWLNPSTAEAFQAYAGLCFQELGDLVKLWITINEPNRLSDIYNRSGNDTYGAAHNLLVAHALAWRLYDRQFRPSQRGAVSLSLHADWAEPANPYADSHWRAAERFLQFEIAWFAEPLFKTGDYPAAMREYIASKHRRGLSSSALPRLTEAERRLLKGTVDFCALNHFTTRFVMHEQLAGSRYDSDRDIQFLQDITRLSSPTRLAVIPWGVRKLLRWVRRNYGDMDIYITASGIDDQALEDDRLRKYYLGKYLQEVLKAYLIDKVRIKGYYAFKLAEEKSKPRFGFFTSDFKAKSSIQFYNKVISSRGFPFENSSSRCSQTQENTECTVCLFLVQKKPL
# B1: Ab0215 (antibody, IgG4, V domains shown)
# VH: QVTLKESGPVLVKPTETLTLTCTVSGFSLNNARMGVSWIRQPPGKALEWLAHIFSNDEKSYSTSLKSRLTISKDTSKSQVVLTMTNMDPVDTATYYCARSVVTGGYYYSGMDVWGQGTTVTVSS
# VL: SYVLTQPPSVSVAPGQTARITCGGSNIGSESVHWYQQKPGQAPVLVVYDDSDRPSGIPERFSGSNSGNTATLTISRVEAGDEADYYCQVWDGNSDHVVFGGGTKLTVLG
# notes: IgG4 PE
# B2: Ab0218 (antibody, IgG4, V domains shown)
# VH: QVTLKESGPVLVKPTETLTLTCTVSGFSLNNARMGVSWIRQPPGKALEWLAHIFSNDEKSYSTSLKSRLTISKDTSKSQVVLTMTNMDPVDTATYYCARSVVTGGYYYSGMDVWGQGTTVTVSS
# VL: B1 VL with S25N, D91T
# notes: IgG4 PE
# B3: Ab0311 (antibody, IgG4, V domains shown)
# VH: QVTLKESGPVLVKPTETLTLTCTVSGFSLNNARVGVSWIRQPPGKALEWLAHIFSNDEKSYSTSLKSRLTISKDTSKSQVVLTMTNMDPVDTATYYCARSVVTGGYYYEGMDVWGQGTTVTVSS
# VL: B1 VL with S25N, D49Y, D50E, N93E
# notes: IgG4 PE
# B4: Ab0310 (antibody, IgG4, V domains shown)
# VH: B3 VH
# VL: B1 VL with D50E, N93E
# notes: IgG4 PE
# B5: Ab0295 (antibody, IgG4, V domains shown)
# VH: B3 VH
# VL: B1 VL with D49Y
# notes: IgG4 PE
# B6: Ab0307 (antibody, IgG4, V domains shown)
# VH: B3 VH
# VL: B1 VL with S25N, D49Y, N93E
# notes: IgG4 PE
# B7: Ab0234 (antibody, IgG4, V domains shown)
# VH: not shown
# VL: B1 VL with S25N, N93S
# notes: IgG4 PE
# B8: Ab0308 (antibody, IgG4, V domains shown)
# VH: B3 VH
# VL: B1 VL with D49Y, N93E
# notes: IgG4 PE
# B9: Ab0297 (antibody, IgG4, V domains shown)
# VH: B3 VH
# VL: B1 VL with S25N, D49Y, D50E
# notes: IgG4 PE
# B10: Ab0216 (antibody, IgG4, V domains shown)
# VH: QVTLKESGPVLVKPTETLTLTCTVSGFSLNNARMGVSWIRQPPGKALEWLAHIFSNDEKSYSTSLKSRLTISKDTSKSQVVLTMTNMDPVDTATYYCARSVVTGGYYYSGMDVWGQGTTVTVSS
# VL: B1 VL with S25N, D49Y
# notes: IgG4 PE
# B11: Ab0223 (antibody, IgG4, V domains shown)
# VH: not shown
# VL: B1 VL with S25N, D49S
# notes: IgG4 PE
# B12: Ab0230 (antibody, IgG4, V domains shown)
# VH: not shown
# VL: B1 VL with S25N, D50S
# notes: IgG4 PE
# B13: Ab0219 (antibody, IgG4, V domains shown)
# VH: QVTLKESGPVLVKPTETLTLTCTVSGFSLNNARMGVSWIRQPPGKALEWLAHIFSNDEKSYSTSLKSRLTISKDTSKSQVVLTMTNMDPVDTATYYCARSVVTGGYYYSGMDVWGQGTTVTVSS
# VL: B1 VL with S25N, N93E
# notes: IgG4 PE
# B14: Ab0221 (antibody, IgG4, V domains shown)
# VH: not shown
# VL: B1 VL with S25A
# notes: IgG4 PE
# B15: Ab0226 (antibody, IgG4, V domains shown)
# VH: not shown
# VL: B1 VL with S25N, D49T
# notes: IgG4 PE
# B16: Ab0236 (antibody, IgG4, V domains shown)
# VH: not shown
# VL: B1 VL with S25N, N93A
# notes: IgG4 PE
# B17: Ab0314 (antibody, IgG4, V domains shown)
# VH: B3 VH
# VL: B1 VL with D91T, N93E
# notes: IgG4 PE
# B18: Ab0227 (antibody, IgG4, V domains shown)
# VH: not shown
# VL: B1 VL with S25N, D50Y
# notes: IgG4 PE
# B19: Ab0309 (antibody, IgG4, V domains shown)
# VH: B3 VH
# VL: B1 VL with S25N, D50E, N93E
# notes: IgG4 PE
# B20: Ab0222 (antibody, IgG4, V domains shown)
# VH: not shown
# VL: B1 VL with S25T
# notes: IgG4 PE
# B21: Ab0327 (antibody, IgG4, V domains shown)
# VH: B3 VH
# VL: B1 VL with D49Y, D50Y, D91E, N93E
# notes: IgG4 PE
# B22: Ab0229 (antibody, IgG4, V domains shown)
# VH: not shown
# VL: B1 VL with S25N, D50H
# notes: IgG4 PE
# B23: Ab0235 (antibody, IgG4, V domains shown)
# VH: not shown
# VL: B1 VL with S25N, N93D
# notes: IgG4 PE
# B24: Ab0306 (antibody, IgG4, V domains shown)
# VH: B3 VH
# VL: B1 VL with N93E
# notes: IgG4 PE
# B25: Ab0217 (antibody, IgG4, V domains shown)
# VH: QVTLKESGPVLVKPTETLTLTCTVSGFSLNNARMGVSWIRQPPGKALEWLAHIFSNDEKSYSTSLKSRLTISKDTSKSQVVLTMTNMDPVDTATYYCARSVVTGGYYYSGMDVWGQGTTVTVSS
# VL: B1 VL with S25N, D50E
# notes: IgG4 PE
# B26: Ab0225 (antibody, IgG4, V domains shown)
# VH: not shown
# VL: B1 VL with S25N, D49E
# notes: IgG4 PE
# B27: Ab0326 (antibody, IgG4, V domains shown)
# VH: B3 VH
# VL: B1 VL with D49Y, D50E, D91E, N93S
# notes: IgG4 PE
# B28: Ab0296 (antibody, IgG4, V domains shown)
# VH: B3 VH
# VL: B1 VL with D50E
# notes: IgG4 PE
# B29: Ab0298 (antibody, IgG4, V domains shown)
# VH: B3 VH
# VL: B1 VL with D49Y, D50E
# notes: IgG4 PE
# B30: Ab0228 (antibody, IgG4, V domains shown)
# VH: not shown
# VL: B1 VL with S25N, D50A
# notes: IgG4 PE
# B31: Ab0312 (antibody, IgG4, V domains shown)
# VH: B3 VH
# VL: B1 VL with D49Y, D50E, N93E
# notes: IgG4 PE
# Legend:
# human beta-Klotho (KLB) = target: T1, human beta-Klotho (KLB); experiment: SPR;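 also: Anti-KLB antibodies captured on anti-human Fc CM5 chip, KLB injected as analyte, 180 s association and 1800 s dissociation, fitted to 1:1 binding model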
# [1] = target: human FGFR1c + KLB receptor complex on HEK293 iLite FGF21 reporter cells (human, UniProt P11362 22-822; Q86Z14 1-1044); experiment: cell-based or functional assay
# Chain of human FGFR1c + KLB receptor complex on HEK293 iLite FGF21 reporter cells (P11362 22-822, chain 1 of 2): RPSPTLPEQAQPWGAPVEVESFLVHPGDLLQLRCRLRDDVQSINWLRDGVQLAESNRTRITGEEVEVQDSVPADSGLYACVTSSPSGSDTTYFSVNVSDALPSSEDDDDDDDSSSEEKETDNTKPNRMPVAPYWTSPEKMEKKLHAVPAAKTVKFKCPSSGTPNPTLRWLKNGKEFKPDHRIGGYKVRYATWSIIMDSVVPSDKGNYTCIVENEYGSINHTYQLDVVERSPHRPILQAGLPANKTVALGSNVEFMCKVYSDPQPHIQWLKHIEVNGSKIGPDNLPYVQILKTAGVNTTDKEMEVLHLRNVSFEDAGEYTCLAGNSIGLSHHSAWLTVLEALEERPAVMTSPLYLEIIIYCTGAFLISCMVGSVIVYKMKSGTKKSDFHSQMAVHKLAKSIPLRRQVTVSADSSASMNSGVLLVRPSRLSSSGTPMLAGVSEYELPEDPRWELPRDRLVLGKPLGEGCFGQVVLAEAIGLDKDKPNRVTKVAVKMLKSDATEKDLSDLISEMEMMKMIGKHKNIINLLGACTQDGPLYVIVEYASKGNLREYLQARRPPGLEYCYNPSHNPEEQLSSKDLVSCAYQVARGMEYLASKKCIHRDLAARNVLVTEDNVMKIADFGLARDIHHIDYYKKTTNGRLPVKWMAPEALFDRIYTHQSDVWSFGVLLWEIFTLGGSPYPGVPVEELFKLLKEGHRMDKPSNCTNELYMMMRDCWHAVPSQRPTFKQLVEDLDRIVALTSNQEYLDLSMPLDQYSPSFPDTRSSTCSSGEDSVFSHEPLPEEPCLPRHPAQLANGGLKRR
# Chain of human FGFR1c + KLB receptor complex on HEK293 iLite FGF21 reporter cells (Q86Z14 whole entry, chain 2 of 2): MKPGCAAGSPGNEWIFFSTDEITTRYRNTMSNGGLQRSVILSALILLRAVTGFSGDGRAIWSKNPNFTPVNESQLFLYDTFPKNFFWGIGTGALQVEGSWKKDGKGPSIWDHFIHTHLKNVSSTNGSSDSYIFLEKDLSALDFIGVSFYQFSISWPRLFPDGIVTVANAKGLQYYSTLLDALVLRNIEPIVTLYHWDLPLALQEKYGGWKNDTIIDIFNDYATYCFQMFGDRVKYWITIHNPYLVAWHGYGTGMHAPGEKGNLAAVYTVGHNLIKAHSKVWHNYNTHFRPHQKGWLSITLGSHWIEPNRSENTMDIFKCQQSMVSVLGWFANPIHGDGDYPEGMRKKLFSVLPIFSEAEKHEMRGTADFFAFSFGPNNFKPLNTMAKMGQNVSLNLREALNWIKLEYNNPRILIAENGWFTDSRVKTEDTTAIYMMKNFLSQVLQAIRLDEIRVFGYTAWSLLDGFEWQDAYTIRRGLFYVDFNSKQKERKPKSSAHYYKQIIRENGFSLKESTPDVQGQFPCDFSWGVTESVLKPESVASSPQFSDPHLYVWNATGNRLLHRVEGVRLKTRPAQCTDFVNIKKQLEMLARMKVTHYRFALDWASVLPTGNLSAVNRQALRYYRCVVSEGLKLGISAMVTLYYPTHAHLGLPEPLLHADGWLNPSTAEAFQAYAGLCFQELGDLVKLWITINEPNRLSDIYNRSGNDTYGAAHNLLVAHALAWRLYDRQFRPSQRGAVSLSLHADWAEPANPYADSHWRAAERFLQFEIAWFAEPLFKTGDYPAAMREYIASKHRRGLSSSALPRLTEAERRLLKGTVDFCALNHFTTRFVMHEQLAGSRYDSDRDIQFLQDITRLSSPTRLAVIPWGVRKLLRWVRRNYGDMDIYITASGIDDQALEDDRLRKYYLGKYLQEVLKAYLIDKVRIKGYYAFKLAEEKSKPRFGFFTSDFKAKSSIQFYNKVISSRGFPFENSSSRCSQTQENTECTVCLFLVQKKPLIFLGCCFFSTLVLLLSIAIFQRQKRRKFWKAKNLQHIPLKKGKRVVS
Binder,koff (human beta-Klotho (KLB)) [s⁻¹],EC50 [1] [nM],Emax [1] [%]
B1,0.00125,0.04,2000
B2,0.00668,2.13,1060
B3,0.0013,0.05,1080
B4,0.00116,0.05,1080
B5,0.00157,0.07,1310
B6,0.00118,0.06,1150
B7,0.00011,0.04,1840
B8,0.0013,0.06,1070
B9,0.00156,0.07,1210
B10,0.00984,0.27,1180
B11,0.00024,0.06,2050
B12,0.000111,0.06,1610
B13,0.000915,0.02,2490
B14,0.00011,0.09,2000
B15,0.00101,0.11,1970
B16,0.000151,0.05,2190

Binder,koff (human beta-Klotho (KLB)) [s⁻¹],EC50 [1] [nM],Emax [1] [%]
B17,0.000402,0.05,1110
B18,0.000214,0.06,2340
B19,0.00103,0.04,1210
B20,0.000309,0.13,2020
B21,0.000346,0.05,995
B22,0.000394,0.04,1440
B23,0.000153,0.06,2090
B24,0.000288,0.05,1330
B25,0.002,0.07,1970
B26,0.00104,0.09,1790
B27,0.00175,0.07,1010
B28,0.00137,0.06,1290
B29,0.0016,0.08,1180
B30,0.000258,0.04,1380
B31,0.00053,0.07,1010
